Laboratory results reported in paper PMC4596520.

Key:
Assay in all cases: SPR
Conditions in all cases: read off a plot
[1] = target: hexa-His-tagged recombinant soluble human Fcγ receptor I (UniProt P12314)
[2] = target: hexa-His-tagged recombinant soluble human Fcγ receptor IIa, 134R (UniProt P12318)
[3] = target: hexa-His-tagged recombinant soluble human Fcγ receptor IIIa, 158F (UniProt P08637)
UniProt P08637, sequence (P08637 17-208): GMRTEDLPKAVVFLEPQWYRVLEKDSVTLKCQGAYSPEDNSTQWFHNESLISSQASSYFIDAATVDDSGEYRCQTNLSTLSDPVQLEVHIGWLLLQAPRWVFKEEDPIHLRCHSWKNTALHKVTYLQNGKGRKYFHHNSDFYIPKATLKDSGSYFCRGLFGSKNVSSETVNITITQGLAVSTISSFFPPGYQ

UniProt P12314, sequence (P12314 16-292): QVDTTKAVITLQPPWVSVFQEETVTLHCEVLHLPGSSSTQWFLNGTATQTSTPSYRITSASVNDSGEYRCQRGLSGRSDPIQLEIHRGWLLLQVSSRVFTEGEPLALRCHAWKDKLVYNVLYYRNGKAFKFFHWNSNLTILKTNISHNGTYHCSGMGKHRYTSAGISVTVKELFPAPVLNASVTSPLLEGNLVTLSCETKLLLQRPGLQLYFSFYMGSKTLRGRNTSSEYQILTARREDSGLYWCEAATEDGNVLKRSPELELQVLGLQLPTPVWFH
UniProt P12318, sequence (P12318 34-217 H167R): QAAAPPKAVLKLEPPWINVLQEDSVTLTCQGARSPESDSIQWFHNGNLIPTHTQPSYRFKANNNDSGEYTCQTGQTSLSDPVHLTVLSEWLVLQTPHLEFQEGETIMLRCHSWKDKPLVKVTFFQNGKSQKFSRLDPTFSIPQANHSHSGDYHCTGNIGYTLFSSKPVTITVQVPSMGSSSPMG

Kd ([1]; parent: est. 11)	Kd ([2]; parent: est. 18)	Kd ([3]; parent: est. 17)	Kd ([1]; parent: est. 2.3)	Kd ([2]; parent: est. 12)	Kd ([3]; parent: est. 5.0)	Substance
9.8 ×10^-8 M	10 ×10^-7 M	17 ×10^-7 M				fucosylated anti-CD20 chimeric IgG1 rituximab with a wild-type Fc region Y296C
11 ×10^-8 M	12 ×10^-7 M	17 ×10^-7 M				fucosylated anti-CD20 chimeric IgG1 rituximab with a wild-type Fc region Y296D
12 ×10^-8 M	11 ×10^-7 M	20 ×10^-7 M				fucosylated anti-CD20 chimeric IgG1 rituximab with a wild-type Fc region Y296E
11 ×10^-8 M	9.5 ×10^-7 M	21 ×10^-7 M				fucosylated anti-CD20 chimeric IgG1 rituximab with a wild-type Fc region Y296F
14 ×10^-8 M	13 ×10^-7 M	56 ×10^-7 M				fucosylated anti-CD20 chimeric IgG1 rituximab with a wild-type Fc region Y296G
11 ×10^-8 M	11 ×10^-7 M					fucosylated anti-CD20 chimeric IgG1 rituximab with a wild-type Fc region Y296H
10 ×10^-8 M	12 ×10^-7 M					fucosylated anti-CD20 chimeric IgG1 rituximab with a wild-type Fc region Y296I
11 ×10^-8 M	9 ×10^-7 M					fucosylated anti-CD20 chimeric IgG1 rituximab with a wild-type Fc region Y296L
10 ×10^-8 M	13 ×10^-7 M					fucosylated anti-CD20 chimeric IgG1 rituximab with a wild-type Fc region Y296M
10 ×10^-8 M	12 ×10^-7 M					fucosylated anti-CD20 chimeric IgG1 rituximab with a wild-type Fc region Y296N
18 ×10^-8 M						fucosylated anti-CD20 chimeric IgG1 rituximab with a wild-type Fc region Y296P
9.6 ×10^-8 M	11 ×10^-7 M	27 ×10^-7 M				fucosylated anti-CD20 chimeric IgG1 rituximab with a wild-type Fc region Y296Q
10 ×10^-8 M	12 ×10^-7 M	41 ×10^-7 M				fucosylated anti-CD20 chimeric IgG1 rituximab with a wild-type Fc region Y296R
10 ×10^-8 M	13 ×10^-7 M	30 ×10^-7 M				fucosylated anti-CD20 chimeric IgG1 rituximab with a wild-type Fc region Y296S
12 ×10^-8 M	12 ×10^-7 M	32 ×10^-7 M				fucosylated anti-CD20 chimeric IgG1 rituximab with a wild-type Fc region Y296T
10 ×10^-8 M	14 ×10^-7 M					fucosylated anti-CD20 chimeric IgG1 rituximab with a wild-type Fc region Y296V

Kd ([1]; parent: est. 11)	Kd ([2]; parent: est. 18)	Kd ([3]; parent: est. 17)	Kd ([1]; parent: est. 2.3)	Kd ([2]; parent: est. 12)	Kd ([3]; parent: est. 5.0)	Substance
			3.3 ×10^-8 M	8 ×10^-7 M	6.5 ×10^-7 M	nonfucosylated anti-CD20 chimeric IgG1 rituximab with a wild-type Fc region Y296C
			2.7 ×10^-8 M	9.5 ×10^-7 M	6 ×10^-7 M	nonfucosylated anti-CD20 chimeric IgG1 rituximab with a wild-type Fc region Y296D
			2.7 ×10^-8 M		9 ×10^-7 M	nonfucosylated anti-CD20 chimeric IgG1 rituximab with a wild-type Fc region Y296E
			2.6 ×10^-8 M	9.8 ×10^-7 M	6 ×10^-7 M	nonfucosylated anti-CD20 chimeric IgG1 rituximab with a wild-type Fc region Y296F
			3 ×10^-8 M	7.5 ×10^-7 M	6.5 ×10^-7 M	nonfucosylated anti-CD20 chimeric IgG1 rituximab with a wild-type Fc region Y296H
			3.2 ×10^-8 M	10 ×10^-7 M	9.5 ×10^-7 M	nonfucosylated anti-CD20 chimeric IgG1 rituximab with a wild-type Fc region Y296I
			2.8 ×10^-8 M	11 ×10^-7 M	10 ×10^-7 M	nonfucosylated anti-CD20 chimeric IgG1 rituximab with a wild-type Fc region Y296L
			3.2 ×10^-8 M	11 ×10^-7 M	9.5 ×10^-7 M	nonfucosylated anti-CD20 chimeric IgG1 rituximab with a wild-type Fc region Y296M
			3.2 ×10^-8 M	11 ×10^-7 M	8 ×10^-7 M	nonfucosylated anti-CD20 chimeric IgG1 rituximab with a wild-type Fc region Y296N
			7.4 ×10^-8 M			nonfucosylated anti-CD20 chimeric IgG1 rituximab with a wild-type Fc region Y296P
			3.2 ×10^-8 M	11 ×10^-7 M	10 ×10^-7 M	nonfucosylated anti-CD20 chimeric IgG1 rituximab with a wild-type Fc region Y296Q
			3.3 ×10^-8 M	10 ×10^-7 M		nonfucosylated anti-CD20 chimeric IgG1 rituximab with a wild-type Fc region Y296R
			3.4 ×10^-8 M	9.2 ×10^-7 M	11 ×10^-7 M	nonfucosylated anti-CD20 chimeric IgG1 rituximab with a wild-type Fc region Y296S
			3 ×10^-8 M	9.6 ×10^-7 M	10 ×10^-7 M	nonfucosylated anti-CD20 chimeric IgG1 rituximab with a wild-type Fc region Y296T
			3 ×10^-8 M	11 ×10^-7 M	9 ×10^-7 M	nonfucosylated anti-CD20 chimeric IgG1 rituximab with a wild-type Fc region Y296V
